Measurements reported in patent publication US20210355229A1 (JIANGSU HENGRUI MEDICINE, published 2021).

T1: human OX40-His protein (sinobiological # 10481-H08H) (human, UniProt P43489 29-216)
T1 construct: Bought; analyte in Biacore; not shown: His tag
T1 sequence (looked up): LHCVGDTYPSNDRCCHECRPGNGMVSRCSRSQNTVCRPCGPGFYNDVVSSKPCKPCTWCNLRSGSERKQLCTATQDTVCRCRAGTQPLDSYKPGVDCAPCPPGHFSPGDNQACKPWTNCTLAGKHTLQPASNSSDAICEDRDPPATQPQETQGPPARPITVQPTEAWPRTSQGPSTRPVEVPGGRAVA

T2: human OX40-FC-biotin (human OX40 recombinant protein with Fc tag, Acro Biosystems OX40-H5255, labeled with … (human, UniProt P43489 29-216, labeled with biotin (site not stated)))
T2 construct: range 29-216; Bought (Acro Biosystems OX40-H5255; printed once as OXO-H5255), expressed in HEK293; also called human Bio-OX40-FC; not shown: Fc tag of the bought protein
T2 sequence (looked up): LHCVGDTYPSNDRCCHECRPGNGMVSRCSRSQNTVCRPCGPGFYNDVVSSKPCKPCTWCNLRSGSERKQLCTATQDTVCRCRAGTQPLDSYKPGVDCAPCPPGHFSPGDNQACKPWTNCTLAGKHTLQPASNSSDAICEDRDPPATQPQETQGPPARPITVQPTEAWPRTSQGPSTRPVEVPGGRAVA

T3: human OX40 on Jurkat-NF-Kb luc-hOX40 cells (human, UniProt P43489 29-277)
T3 sequence (looked up): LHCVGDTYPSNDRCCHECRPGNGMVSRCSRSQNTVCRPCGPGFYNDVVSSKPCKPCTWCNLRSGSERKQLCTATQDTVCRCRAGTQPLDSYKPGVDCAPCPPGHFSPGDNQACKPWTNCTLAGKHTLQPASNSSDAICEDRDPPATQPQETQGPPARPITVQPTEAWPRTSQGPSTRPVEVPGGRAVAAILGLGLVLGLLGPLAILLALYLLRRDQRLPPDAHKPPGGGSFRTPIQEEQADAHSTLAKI


Legend:
[1] = target: T1, human OX40-His protein (sinobiological …); assay: SPR (Biacore T200), antibody coupled to CM5 chip, OX40-His as analyte, 1:1 model
Method: Using the kit provided by Biacore, the recombinant anti-OX40 antibody to be tested of the present invention was covalently connected to the CM5 (GE) chip by NHS standard amino coupling method. A series of concentration gradients of human OX40-His protein (sinobiological # 10481-H08H) diluted in the same buffer were then loaded into each cycle at a flow rate of 30 μL/min. After loading, the chip was regenerated using regeneration reagent provided in the kit. The antigen-antibody binding kinetics was traced for 3 minutes, and the dissociation kinetics was traced for 10 minutes. The resulting data were analyzed by using BIAevaluation software (GE) with 1:1 (Langmuir) binding model.

[2] = target: T2, human OX40-FC-biotin (human OX40 …); assay: blocking ELISA: OX40L coated, biotin-OX40-Fc pre-incubated with antibody, SA-HRP
Method: The well-plate was coated with the OX40 ligand (Acrobiosystem, OXL-H52Q8), blocked, added the gradient-diluted antibody to be tested (the antibody was diluted in a solution comprising human Bio-OX40-FC (Acrobiosystem, OX40-H5255, labeled with biotin), pre-incubated for 40 minutes, and then added into the plate), incubated for 40 minute, and washed. SA-HRP (Jackson Immunoresearch, 016-030-084) was then added and incubated for 40min. The developing solution and stop solution were added, and the OD value was measured.

[3] = target: T3, human OX40 on Jurkat-NF-Kb luc-hOX40 …; assay: cell-based or functional assay
[4] = target: T2, human OX40-FC-biotin (human OX40 …); assay: capture ELISA, biotin-OX40-Fc
Method: 20xPBS buffer was diluted to 1 xwith deionized water. […] 100 μL of the diluted primary antibody was added to each well (the antibody to be tested was 5-fold diluted from the concentration of 10000 ng/ml, resulting in seven gradients, namely 10000 ng/ml, 2000 ng/ml, 400 ng/ml, 80 ng/ml, 16 ng/ml, 3.2 ng/ml, and 0.64 ng/ml, blank wells merely contained dilution solution, i.e., 2.5% skimmed milk in PBST), and incubated at 37° C. for 40 minutes. The plate was washed for 4 times with PBST, human OX40-FC-biotin (Acro biosystem, OXO-H5255, labeled biotin) was diluted with 2.5% skimmed milk in PBST, 100 μl was added to each well, incubated at 37° C. for 40 min, and the plate was washed for 4 times with PB ST. 100 μL TMB developing solution was added to each well, incubated for 3-15 minutes in dark at room temperature, 50 μl stop solution (1M sulfuric acid) was added to each well. The parameters were set for the microplate reader, the OD value was read at 450-630nm, and the test data were saved.

Row | Binder | Kd [1] [nM] | koff [1] [s⁻¹] | kon [1] [M⁻¹ s⁻¹] | IC50 [2] [nM] | EC50 (nM), activation of reporter gene (luciferase, Jurkat-NF-Kb luc-hOX40 cells with Raji cells, anti-CD3 coated) [3] [nM] | EC50 [4] [µg/mL]
1 | humanized antibody 2G3 (antibody, human IgG1, kappa, V domains shown, also called 2G3 (hu2G3 VH1.1 + hu2G3 VL1)) VH: QVQLQESGPGLVKPSETLSLTCTVSGYSISRYSVHWVRQPPGKGLEWIGMIWDGGNTDYNAALKSRFTISRDNAKNTLYLQMNSLRAEDTAVYYCARNPLYFSYAMDYWGQGTLVTVSS VL: DIQMTQSPSSLSASVGDRVTITCRASQDISNYLNWYQQKPDQSPKLLIIYTSRLQSGVPSRFSGSGSGTDYTLTISSLQPEDFATYYCQQVNTFPFTFGQGTKLEIKR | 4.63 | 0.00202 | 437000 | 1.88 | 2.29 | –
2 | humanized antibody hu4B5-V7 (antibody, human IgG1, kappa, V domains shown) VH: QVQLKESGPGLVKPSETLSLTCTVSGFSLTSYGLHWFRQPPGKGLEWIGVIWSGGSTDYNAAFISRVTISKEDSKSQVSLKLSSVTAADTAVYYCAREEYDVWGQGTTVTVSS VL: DIQMTQSPSSLSASVGDRVTITCRASQDISNYLNWYQQKPGGVPKLLIYYTSRLHSGVPSRFSGSGSGTDYTLTISSLQPEDVATYYCQQGNTLPWTFGGGTKVEIKR | 2.81 | 0.000369 | 131000 | 0.725 | 0.341 | 0.254
